# Assay results from PMC2989882.
# Like-named read-outs stand apart in the source and are kept apart here.
# Key:
# [1] = biological target: T1, 3Dpol WT (RNA-dependent RNA polymerase) (poliovirus, UniProt P03300 1749-2209); assay: NMR
# [2] = biological target: T1, 3Dpol WT (RNA-dependent RNA polymerase); assay: NMR; remark: listed apart in the source
# T1 sequence (P03300 1749-2209): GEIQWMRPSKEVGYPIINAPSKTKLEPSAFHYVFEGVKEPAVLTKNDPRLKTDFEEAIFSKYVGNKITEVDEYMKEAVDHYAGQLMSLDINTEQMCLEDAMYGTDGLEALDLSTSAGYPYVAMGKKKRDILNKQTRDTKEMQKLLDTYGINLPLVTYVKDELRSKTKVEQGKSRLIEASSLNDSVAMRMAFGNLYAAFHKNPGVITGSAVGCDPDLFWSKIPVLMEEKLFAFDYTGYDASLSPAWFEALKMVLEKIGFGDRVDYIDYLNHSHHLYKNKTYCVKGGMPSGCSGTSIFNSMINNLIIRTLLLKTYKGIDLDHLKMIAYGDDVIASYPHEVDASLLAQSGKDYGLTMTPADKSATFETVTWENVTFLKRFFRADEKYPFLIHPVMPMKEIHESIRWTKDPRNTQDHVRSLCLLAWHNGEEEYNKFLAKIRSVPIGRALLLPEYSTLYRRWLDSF
Binder,binding result [1],binding result [2]
"3'-blocked sym/sub RNA (after 3'-dAMP incorporation) (dsRNA, 3'-terminal 3'-deoxyadenosine (A11)) RNA 1: GCAUGGGCCCA RNA 2: GCAUGGGCCCA",binds,
sym/sub RNA (dsRNA) RNA 1: GCAUGGGCCC RNA 2: GCAUGGGCCC,,binds
